Results taken from US20130225488A1 (CADILA HEALTHCARE, published 2013).
Where no end group is shown, it is not given here. [ ]: non-standard residue; d: D form. αMePhe(2-F) = C[C@](N)(Cc1ccccc1F)C(=O)O; Ac3c = NC1(C(=O)O)CC1

Experiments:
[1] = target: Human glucagon receptor (human, UniProt P47871 26-477); test: cell-based or functional assay
[2] = target: Human GLP-1 receptor (human, UniProt P43220 24-463); test: cell-based or functional assay
Sequence of Human GLP-1 receptor (P43220 24-463): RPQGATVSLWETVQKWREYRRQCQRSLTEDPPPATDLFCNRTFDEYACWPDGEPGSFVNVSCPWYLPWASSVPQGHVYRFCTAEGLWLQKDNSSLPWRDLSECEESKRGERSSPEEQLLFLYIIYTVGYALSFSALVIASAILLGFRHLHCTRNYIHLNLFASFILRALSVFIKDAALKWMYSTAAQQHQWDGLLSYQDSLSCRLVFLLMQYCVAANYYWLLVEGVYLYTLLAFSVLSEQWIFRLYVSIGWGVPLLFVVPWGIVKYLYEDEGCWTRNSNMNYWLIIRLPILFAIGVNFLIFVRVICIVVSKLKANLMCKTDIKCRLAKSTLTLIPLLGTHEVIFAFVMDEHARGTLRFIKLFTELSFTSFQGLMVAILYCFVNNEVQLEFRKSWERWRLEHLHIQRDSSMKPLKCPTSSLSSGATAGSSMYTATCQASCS

Row | Binder | cAMP production with saturated glucagon peptide; test compound 1 nM [1] | cAMP production with saturated glucagon peptide; test compound 10 nM [1] | cAMP production with saturated glucagon peptide; test compound 100 nM [1] | cAMP production with saturated glucagon peptide; test compound 10 µM [1] | cAMP production with saturated glucagon peptide; test compound '1 nM' [1] | cAMP release, % activity with respect to control; test compound 1 nM [2] | cAMP release, % activity with respect to control; test compound 10 nM [2] | cAMP release, % activity with respect to control; test compound 100 nM [2] | cAMP release, % activity with respect to control; test compound 1 µM [2] | cAMP release, % activity with respect to control; test compound 10 µM [2]
1 | HXQGTXTSDXX (not fully specified; ACP at 2; α-Me-2F-Phe at 6; Bip(OMe) at 10; Bip(2CF3) at 11) [Seq. ID. No. 36: H-(ACP)-QGT-(α-Me-2F-Phe)-TSD-Bip(OMe)-Bip(2CF3)] | 3 pmol/ml/µg prt | 1 pmol/ml/µg prt | 0 pmol/ml/µg prt | 0 pmol/ml/µg prt | 0 pmol/ml/µg prt | – | – | – | – | –
2 | HAQGT[αMePhe(2-F)]TSD[Bip(OMe)][Bip(2Me)] [Seq. ID. No. 25: HAQGT-(α-Me-2F-Phe)-TSD-Bip(OMe)-Bip(2Me)] | 18 pmol/ml/µg prt | 16 pmol/ml/µg prt | 12 pmol/ml/µg prt | 6 pmol/ml/µg prt | 8 pmol/ml/µg prt | 38% | 77% | 85% | 94% | 97%
3 | H[Ac3c]QGTFTSD[Bip(OMe)][Bip(2F)] [Seq. ID. No. 19: H-(ACP)-QGTFTSD-Bip(OMe)-Bip(2F)] | 5 pmol/ml/µg prt | 3 pmol/ml/µg prt | 1 pmol/ml/µg prt | 0 pmol/ml/µg prt | 0 pmol/ml/µg prt | – | – | – | – | –
4 | HSQGTXTSDXX (α-Me-2F-Phe at 6; Bip(OMe) at 10; Bip(2F) at 11) [Seq. ID. No. 23: HSQGT-(α-Me-2F-Phe)-TSD-Bip(OMe)-Bip(2F)] | 4 pmol/ml/µg prt | 2 pmol/ml/µg prt | 2 pmol/ml/µg prt | 0 pmol/ml/µg prt | 0 pmol/ml/µg prt | 46% | 85% | 90% | 99% | 99%
5 | H[Ac3c]QGTFTSD[Bip(OMe)][Bip(2CF3)] (not fully specified) [Seq. ID. No. 20: H-(ACP)-QGTFTSD-Bip(OMe)-Bip(2CF3)] | 5 pmol/ml/µg prt | 2 pmol/ml/µg prt | 0 pmol/ml/µg prt | 0 pmol/ml/µg prt | 0 pmol/ml/µg prt | – | – | – | – | –
6 | HSQGTXTSDXX (α-Me-2F-Phe at 6; Bip(OMe) at 10; Bip(2CF3) at 11) [Seq. ID. No. 24: HSQGT-(α-Me-2F-Phe)-TSD-Bip(OMe)-Bip(2CF3)] | 4 pmol/ml/µg prt | 2 pmol/ml/µg prt | 0 pmol/ml/µg prt | 0 pmol/ml/µg prt | 0 pmol/ml/µg prt | 41% | 82% | 87% | 95% | 98%
7 | HAQGT[αMePhe(2-F)]TSD[Bip(OMe)][Bip(2F)] [Seq. ID. No. 27: HAQGT-(α-Me-2F-Phe)-TSD-Bip(OMe)-Bip(2F)] | 14 pmol/ml/µg prt | 11 pmol/ml/µg prt | 7 pmol/ml/µg prt | 0 pmol/ml/µg prt | 3 pmol/ml/µg prt | 82% | 87% | 92% | 99% | 99%
8 | HSQGTFTSD[Bip(OMe)][Bip(Pyr)] (not fully specified (C-terminus); printed as HSQGTFTSD-Bip(OMe)-Bip(Pyr)) [Seq. ID. No. 6: HSQGTFTSD-Bip(OMe)-Bip(Pyr)] | – | – | – | – | – | 39% | 80% | 88% | 96% | 99%
9 | HAQGTFTSD[Bip(OMe)][Bip(2CF3)] [Seq. ID. No. 12: HAQGTFTSD-Bip(OMe)-Bip(2CF3)] | 5 pmol/ml/µg prt | 3 pmol/ml/µg prt | 0 pmol/ml/µg prt | 0 pmol/ml/µg prt | 0 pmol/ml/µg prt | – | – | – | – | –
10 | HAQGT[αMePhe(2-F)]TSD[Bip(OMe)][Bip(2CF3)] [Seq. ID. No. 28: HAQGT-(α-Me-2F-Phe)-TSD-Bip(OMe)-Bip(2CF3)] | 4 pmol/ml/µg prt | 3 pmol/ml/µg prt | 0 pmol/ml/µg prt | 0 pmol/ml/µg prt | 0 pmol/ml/µg prt | 55% | 88% | 92% | 99% | 99%
11 | HSQGTXTSDXX (α-Me-2F-Phe at 6; Bip(OMe) at 10; Bip(Pyr) at 11) [Seq. ID. No. 22: HSQGT-(α-Me-2F-Phe)-TSD-Bip(OMe)-Bip(Pyr)] | 21 pmol/ml/µg prt | 19 pmol/ml/µg prt | 18 pmol/ml/µg prt | 16 pmol/ml/µg prt | 18 pmol/ml/µg prt | – | – | – | – | –
12 | HAQGT[αMePhe(2-F)]TSD[Bip(OMe)][Bip(Pyr)] [Seq. ID. No. 26: HAQGT-(α-Me-2F-Phe)-TSD-Bip(OMe)-Bip(Pyr)] | 15 pmol/ml/µg prt | 12 pmol/ml/µg prt | 8 pmol/ml/µg prt | 2 pmol/ml/µg prt | 4 pmol/ml/µg prt | – | – | – | – | –
13 | HAQGTFTSD[Bip(OMe)][Bip(Pyr)] [Seq. ID. No. 10: HAQGTFTSD-Bip(OMe)-Bip(Pyr)] | 15 pmol/ml/µg prt | 12 pmol/ml/µg prt | 8 pmol/ml/µg prt | 2 pmol/ml/µg prt | 4 pmol/ml/µg prt | – | – | – | – | –
14 | HSQGTXTSDXX (α-Me-2F-Phe at 6; Bip(OMe) at 10; Bip(2Me) at 11) [Seq. ID. No. 21: HSQGT-(α-Me-2F-Phe)-TSD-Bip(OMe)-Bip(2Me)] | 19 pmol/ml/µg prt | 17 pmol/ml/µg prt | 15 pmol/ml/µg prt | 12 pmol/ml/µg prt | 14 pmol/ml/µg prt | 39% | 80% | 86% | 95% | 98%
